Biological target: T1, variant nuclease SEQ ID NO: 53 (P14R, D32R, I61R, E311R, T338G, E736G)
T1 chain: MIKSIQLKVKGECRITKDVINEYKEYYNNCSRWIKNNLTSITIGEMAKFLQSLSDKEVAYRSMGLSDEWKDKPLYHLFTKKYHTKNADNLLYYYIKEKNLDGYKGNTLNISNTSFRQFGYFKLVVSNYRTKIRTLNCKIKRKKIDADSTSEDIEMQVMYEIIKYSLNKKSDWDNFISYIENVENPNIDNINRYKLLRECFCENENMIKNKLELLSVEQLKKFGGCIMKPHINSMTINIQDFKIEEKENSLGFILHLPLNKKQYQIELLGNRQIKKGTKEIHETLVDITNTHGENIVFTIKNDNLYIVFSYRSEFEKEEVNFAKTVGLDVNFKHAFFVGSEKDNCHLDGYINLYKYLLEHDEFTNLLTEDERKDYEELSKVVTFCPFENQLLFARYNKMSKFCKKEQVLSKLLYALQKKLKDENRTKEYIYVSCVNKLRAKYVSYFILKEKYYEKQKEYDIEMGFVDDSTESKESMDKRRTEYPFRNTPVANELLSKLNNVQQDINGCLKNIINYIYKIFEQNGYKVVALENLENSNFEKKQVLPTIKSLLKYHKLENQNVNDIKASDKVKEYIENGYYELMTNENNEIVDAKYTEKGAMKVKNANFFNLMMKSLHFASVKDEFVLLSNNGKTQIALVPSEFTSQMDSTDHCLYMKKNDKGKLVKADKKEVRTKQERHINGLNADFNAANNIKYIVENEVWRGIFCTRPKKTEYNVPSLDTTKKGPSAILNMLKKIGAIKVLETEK
Assay: cell_activity; % indels; HEK293T; PAM 5'-TTTA-3'
Conditions: tags: pcDNA3.1 expression

B1: VEGFA crRNA ; VEGFA target (ssRNA ; dsDNA)
RNA: CUUGUUGUAUAUGUCCUUUUAUAGGUAUUAAACAACUCCAGACCACCAAUGGGCAC
DNA 1: TCCAGACCACCAATGGGCAC
DNA 2: GTGCCCATTGGTGGTCTGGA
Question: With B1 as the binder, how does the indel editing activity read?
Answer: 3.04 fold of WT
